In US20230192818A1:
Where a chain is given by its changes, count along the chain named.

B1: 11-1 (antibody, V domains shown)
VH: QVQLVESGGGVVQPGRSLRLSCAASGFTFGSYGMHWVRQAPGKGLEWVAVISYDGGDEYYADSVKGRFTISRDNSKNTLYLQMNSLRAEDTAVYYCARDISRYGYYGMDVWGQGTLVTVSS
VL: EIVLTQSPATLSLSPGERATLSCRASQSLGSFLAWYQQKPGQAPRLLIYDASNRATGIPARFSGSGSGTDFTLTISSLEPEDFAVYYCQQRALWPRLTFGGGTKVEIK
B2: 11-2 (antibody, V domains shown)
VH: QVQLVESGGGVVQPGRSLRLSCAASGFTFGTYAMHWVRQAPGKGLEWVAVVSTEGGTTYYADSVKGRFTISRDNSKNTLYLQMNSLRAEDTAVYYCAGSYGAYFDYWGQGTLVTVSS
VL: EIVLTQSPATLSLSPGERATLSCRASQSVNSYLAWYQQKPGQAPRLLIYDVSNRATGIPARFSGSGSGTDFTLTISSLEPEDFAVYYCQQFSNWPTFGGGTKVEIK
B3: 11-3 (antibody, V domains shown)
VH: QVQLVESGGGVVQPGRSLRLSCAASGFTFSNFAMHWVRQAPGKGLEWVAVISYDGNHEYYADSVKGRFTISRDNSKNTLYLQMNSLRAEDTAVYYCAKTNSGSYGGMFDYWGQGTLVTVSS
VL: EIVLTQSPATLSLSPGERATLSCRASQNIGNHLAWYQQKPGQAPRLLIYDASNRATGIPARFSGSGSGTDFTLTISSLEPEDFAVYYCQQRDNGPPEGTFGGGTKVEIK
B4: 11-4 (antibody, V domains shown)
VH: QVQLVESGGGVVQPGRSLRLSCAASGFTFDNYAMHWVRQAPGKGLEWVAVISDDGRNKYYADSVKGRFTISRDNSKNTLYLQMNSLRAEDTAVYYCAKDNYYDSSGYYGGGMDVWGQGTLVTVSS
VL: EIVLTQSPATLSLSPGERATLSCRASQSVGSYLAWYQQKPGQAPRLLIYDAVNRATGIPARFSGSGSGTDFTLTISSLEPEDFAVYYCQQRFTWPTTFGGGTKVEIK
B5: 11-6 (antibody, V domains shown)
VH: QVQLVESGGGVVQPGRSLRLSCAASGFTFGTYAMHWVRQAPGKGLEWVAVVSTEGGTTYYADSVKGRFTISRDNSKNTLYLQMNSLRAEDTAVYYCAGEYYDSSGSSIDYWGQGTLVTVSS
VL: B4 VL with G30D, Y32S, V52S, R91Q, F92S, T93N, T96G
B6: 11-9 (antibody, V domains shown)
VH: B2 VH
VL: B4 VL with G30S, S31Y, A51S, V52S, F92S, T93N, P95Q, T96G, T97N
B7: 11-10 (antibody, V domains shown)
VH: QVQLVESGGGVVQPGRSLRLSCAASGFIFNNYGMHWVRQAPGKGLEWVAVISYDGSNIYYADSVKGRFTISRDNSKNTLYLQMNSLRAEDTAVYYCARDYNDGIGSYTGAFDSWGQGTLVTVSS
VL: B4 VL with G30S, S31T, Y32S, V52T, R91H, F92Y, T93S, T96L
B8: 11-11 (antibody, V domains shown)
VH: QVQLVESGGGVVQPGRSLRLSCAASGFTFDNYAMHWVRQAPGKGLEWVAVISYDGSNKYYADSVKGRFTISRDNSKNTLYLQMNSLRAEDTAVYYCLREGILWDVWGQGTLVTVSS
VL: EIVLTQSPATLSLSPGERATLSCRASHNINNFLAWYQQKPGQAPRLLIYDTSNRATGIPARFSGSGSGTDFTLTISSLEPEDFAVYYCQQGRNWPPSSFGGGTKVEIK
B9: 11-15 (antibody, V domains shown)
VH: QVQLVESGGGVVQPGRSLRLSCAASGFIFSNYGMHWVRQAPGKGLEWVAVISYDGSDKYYADSVKGRFTISRDNSKNTLYLQMNSLRAEDTAVYYCARDDYMYGFEHWGQGTLVTVSS
VL: EMVVPQSPPTVSLSPGERATLSCRASQSVGSYLAWYQQKPGQAPRLLIYDAVNRATGIPARFSGSGSGTDFTLTISSLEPEDFAVYYCQQRSDSITFGGGTKVEIK
B10: 11-16 (antibody, V domains shown)
VH: QVQLVESGGGVVQPGRSLRLSCAASGFTFSDHYMHWVRQAPGKGLEWVAVISYDGSNEYYADSVKGRFTISRDNSKNTLYLQMNSLRAEDTAVYYCAKDLGPAGVDYWGQGTLVTVSS
VL: B4 VL with V29L, S31R, A51S, V52S, R91Y, F92G, T93D, T96E
B11: 11-18 (antibody, V domains shown)
VH: B3 VH with S30G, N31T, F32Y, H57N, E58K, N100G, G105Y, G106S, M107W
VL: B1 VL with G30T, F32Y, A92H, L93Y, R96P, L97I
B12: 11-20 (antibody, V domains shown)
VH: QVQLVESGGGVVQPGRSLRLSCAASGFTFDDYAMHWVRQAPGKGLEWVAVISYDGSNKYYADSVKGRFTISRDNSKNTLYLQMNSLRAEDTAVYYCASPHSGSYWAAFDIWGQGTLVTVSS
VL: EIVLTQSPATLSLSPGERATLSCRASQSVGSYLAWYQQKPGQAPRLLIYDAVNRATGIPARFSGSGSGTDFTLTISSLEPEDFAVYYCQQRSLWPFGGGTKVEIK
B13: 12-1 (antibody, V domains shown)
VH: B12 VH with D30S, D31Y, A33G, I51T, S98R, H100Q, S101G, W105F
VL: B12 VL with G30S, Y32H, A51V, V52S, S92D, L93T, W94F, P95T
B14: 12-2 (antibody, V domains shown)
VH: B12 VH with T28I, D30R, D31S, N57S, S98R, H100S, W105F, A106P, A107P, I110Y
VL: B4 VL with G30D, Y32R, A51T, V52S, F92S, T96P, T97V
B15: 12-4 (antibody, V domains shown)
VH: B12 VH with D30S, D31Y, A33G, S56T, K58D, S98K, W105R, A106G, A107Y, I110Y
VL: B4 VL with Y32H, V52S, R91I, F92S, T93N, T96L
B16: 12-5 (antibody, V domains shown)
VH: QVQLVESGGGVVQPGRSLRLSCAASGFTFSYYGMHWVRQAPGKGLEWVAVTSYDGSNKYYSDSVKGRFTISRDNSKNTLYLQMNSLRAEDTAVYYCARPKSGSYATYFDYWGQGTLVTVSS
VL: B4 VL with S28N, S31Q, Y32S, V52S, F92E, T93N, T96P
B17: 12-6 (antibody, V domains shown)
VH: B12 VH with T28I, D30R, D31N, S98R, H100R, S101G, W105H, A106G
VL: B2 VL with V29L, N30G, S31N, V51S, F91R, S92N, N93W, W94P, P95Y
B18: 12-7 (antibody, V domains shown)
VH: B3 VH with N31I, F32Y, N56T, H57N, T99S, N100R, S101G, G105Y, M107A
VL: B4 VL with V29L, S31N, A51S, V52S, F92T, T93D, T96P, T97S
B19: 12-8 (antibody, V domains shown)
VH: B12 VH with D30N, D31N, A33V, S56T, K58D, S98R, P99G, H100E, A106G, I110Y
VL: B8 VL with H27Q, N30G, F32H, T51V, G91R, R92K, N93S, S97F, S98T
B20: 12-9 (antibody, V domains shown)
VH: B3 VH with N31S, F32Y, A33G, N56T, H57T, K98R, T99P, N100S, G105L, M107F
VL: B4 VL with G30S, S31T, Y32S, V52T, Q90R, F92T, T93D, T96P
B21: 12-10 (antibody, V domains shown)
VH: QVQLVESGGGVVQPGRSLRLSCAASGFIFRSYAMHWVRQAPGKGLEWVAVISYDGSIKYYADSVKGRFTISRDNSKNTLYLQMNSLRAEDTAVYYCARTRGGSYYGAFDYWGQGTLVTVSS
VL: B1 VL with L29V, G30N, F32D, A92T, L93D, R96P, L97A
B22: 12-11 (antibody, V domains shown)
VH: QVQLVESGGGVVQPGRSLRLSCAASGFSFGGYGMHWVRQAPGKGLEWVAVISYDGSNEYYADSVKGRFTISRDNSKNTLYLQMNSLRAEDTAVYYCAKSYSGSYSSYFDYWGQGTLVTVSS
VL: B4 VL
B23: 12-13 (antibody, V domains shown)
VH: B22 VH with G30S, G31T, E58K, K98R, S99P, Y100L, S105W, Y107W, Y110P
VL: B1 VL with L29V, F32Y, S52V, A92N, L93S, R96P, L97A
B24: 12-15 (antibody, V domains shown)
VH: B22 VH with E58K, K98R, S99P, S105I, Y107W
VL: B1 VL with L29V, G30S, F32H, A51V, Q90V, A92S, L93D, R96P
B25: 12-16 (antibody, V domains shown)
VH: B21 VH with I57S, R100L, Y105F, G106A, Y110I
VL: B1 VL with G30D, F32Y, A51V, A92R, L93G, R96P, L97V
B26: 12-17 (antibody, V domains shown)
VH: B22 VH with S28T, G31S, S56N, N57H, K98R, S99P, Y100H, S105T, S106A
VL: B4 VL with G30S, S31K, Y32F, V52S, Q89H, R91H, F92S, T93D, T96L

Biological target: biotinylated SARS-CoV-2 S1 variant B.1.351 (Example 5) (SARS-CoV-2) (UniProt P0DTC2)
Experiment: phage ELISA screening

Binder | ELISA
B1 | 21.7
B2 | 19.4
B3 | 17.3
B4 | 16.3
B5 | 12.6
B6 | 9.14
B7 | 7.06
B8 | 6.43
B9 | 4.97
B10 | 4.65
B11 | 3.7
B12 | 3.42
B13 | 29.2
B14 | 25.9
B15 | 23.5
B16 | 22.8
B17 | 22.4
B18 | 22.2
B19 | 21.4
B20 | 19.9
B21 | 19.7
B22 | 18.8
B23 | 18.1
B24 | 17.6
B25 | 17
B26 | 16.2
